Assay results as given in the supplement of paper PMC10065799, “High-throughput profiling of sequence recognition by tyrosine kinases and SH2 domains using bacterial peptide display” (eLife, 2023).

Target: MERTK (UniProt Q12866)
Test: phosphorylation enrichment, bacterial display (enrichment ratio); higher = better substrate or ligand; peptides without Tyr show the background
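Also: 11-residue human phosphosite peptides and single-mutation variants displayed on the E. coli surface, counted by deep sequencing, each peptide's frequency after selection divided by its frequency in the unselected input library; frequency after pTyr selection over input frequency; kinase dosed for 20-30% of maximal phosphorylation in three min.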

MERTK, sequence (Q12866 whole entry, looked up): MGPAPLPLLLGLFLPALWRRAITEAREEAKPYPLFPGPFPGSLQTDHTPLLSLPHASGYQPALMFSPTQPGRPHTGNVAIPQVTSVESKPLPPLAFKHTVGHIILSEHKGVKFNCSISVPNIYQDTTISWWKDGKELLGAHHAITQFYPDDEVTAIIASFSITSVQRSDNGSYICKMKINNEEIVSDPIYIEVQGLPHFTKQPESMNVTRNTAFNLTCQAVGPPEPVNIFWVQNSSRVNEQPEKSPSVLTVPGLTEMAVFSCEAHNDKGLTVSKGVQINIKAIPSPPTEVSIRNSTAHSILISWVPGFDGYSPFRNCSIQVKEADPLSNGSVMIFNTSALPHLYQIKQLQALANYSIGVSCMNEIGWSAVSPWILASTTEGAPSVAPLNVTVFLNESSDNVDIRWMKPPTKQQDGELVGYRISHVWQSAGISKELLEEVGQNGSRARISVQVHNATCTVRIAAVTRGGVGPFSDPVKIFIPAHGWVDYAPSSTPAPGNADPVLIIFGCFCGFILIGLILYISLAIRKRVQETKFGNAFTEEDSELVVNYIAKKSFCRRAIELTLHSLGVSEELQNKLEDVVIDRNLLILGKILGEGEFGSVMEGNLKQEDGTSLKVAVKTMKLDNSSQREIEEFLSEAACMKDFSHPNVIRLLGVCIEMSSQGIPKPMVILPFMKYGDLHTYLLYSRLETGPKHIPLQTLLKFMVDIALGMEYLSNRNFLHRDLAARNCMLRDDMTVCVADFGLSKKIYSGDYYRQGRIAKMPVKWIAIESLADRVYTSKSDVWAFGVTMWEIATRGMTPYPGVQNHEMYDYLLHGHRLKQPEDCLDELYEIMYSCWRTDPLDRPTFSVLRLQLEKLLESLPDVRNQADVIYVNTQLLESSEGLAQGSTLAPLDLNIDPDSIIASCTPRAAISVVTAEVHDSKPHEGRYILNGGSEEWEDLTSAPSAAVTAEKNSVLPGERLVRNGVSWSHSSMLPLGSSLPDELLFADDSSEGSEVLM

Sequence | phosphorylation enrichment
TRNRDYDDIDD [TTYH2_Y424] | 0.507
AVAFVYYKSIG [ADGRL4_Y301] | 0.401
VRFTEYETQVK [TARDBP_Y155] | 0.401
VCDSNYSASRW [LRP5_Y1552_D1551N] | 0.426
FSVDSYDSSVR [KCNQ1_Y461_G460S] | 0.406
GYRPVYSEDEQ [CHST6_Y362] | 0.48
RGFRVCFTPDS [PTPRF_Y450_Y450C_YF] | 0.551
YLENYYDLKKD [MMP3_Y42] | 1.81
RGRSTYFWPRP [GAGE12J_Y9_YF] | 1.3
YHIDHYLGKEM [G6PD_Y202_R198H] | 0.438
YSKDNYKRVTG [PANK2_Y405] | 0.488
FFRRHYPLTTL [TNS4_Y644] | 0.491
LFQAKYQIRYR [CRLF1_Y272] | 0.465
FGLDHYQCDCT [PTGS1_Y54_R53H] | 0.489
IFGVSYDEYRY [CFTR_Y512] | 0.434
HLVSEYQQYQD [TUBB3_Y422_D417H] | 0.482
TTTQAYRVNER [PRKN_Y391_D394N] | 0.4

Sequence | phosphorylation enrichment
AEEEIYGIFGA [SRCtide_2014] | 3.88
GSTLSYFGLAA [P2RX7_Y343] | 0.892
RRIHSNRGHLW [VHL_Y112_Y112N] | 0.677
VSGIPYGQPKQ [NEU1_Y251] | 0.336
SELVCYDARVH [MET_Y971_R970C] | 0.496
EKLQQYIAPGM [EPHB3_Y600] | 0.328
QRPYVYYYSYL [PTEN_Y176_R173P] | 8.05
PIPIKYKAMKK [MYD88_Y257_L252P] | 0.382
FTGVEYSSCDT [EPHA3_Y937] | 0.419
KNNDGYIDFAE [MCFD2_Y135_YF] | 0.377
LGQRIYQYIRS [DYRK1B_Y271_Q275R] | 7.5
GDDLSYGDVPP [IRS1_Y151_E147D] | 0.413
ADKAAYLQSLN [MYH2_Y389] | 0.476
FETVKYINNER [ABCB7_Y345_F346I_YF] | 0.418
FSKRIYKGMVA [PCDH15_Y931] | 0.362
FIRRDYEACKA [BBS4_Y48_K46R_YF] | 0.4

Target: EPHB2 (UniProt P29323)
Test: as above

EPHB2, sequence (P29323 whole entry, looked up): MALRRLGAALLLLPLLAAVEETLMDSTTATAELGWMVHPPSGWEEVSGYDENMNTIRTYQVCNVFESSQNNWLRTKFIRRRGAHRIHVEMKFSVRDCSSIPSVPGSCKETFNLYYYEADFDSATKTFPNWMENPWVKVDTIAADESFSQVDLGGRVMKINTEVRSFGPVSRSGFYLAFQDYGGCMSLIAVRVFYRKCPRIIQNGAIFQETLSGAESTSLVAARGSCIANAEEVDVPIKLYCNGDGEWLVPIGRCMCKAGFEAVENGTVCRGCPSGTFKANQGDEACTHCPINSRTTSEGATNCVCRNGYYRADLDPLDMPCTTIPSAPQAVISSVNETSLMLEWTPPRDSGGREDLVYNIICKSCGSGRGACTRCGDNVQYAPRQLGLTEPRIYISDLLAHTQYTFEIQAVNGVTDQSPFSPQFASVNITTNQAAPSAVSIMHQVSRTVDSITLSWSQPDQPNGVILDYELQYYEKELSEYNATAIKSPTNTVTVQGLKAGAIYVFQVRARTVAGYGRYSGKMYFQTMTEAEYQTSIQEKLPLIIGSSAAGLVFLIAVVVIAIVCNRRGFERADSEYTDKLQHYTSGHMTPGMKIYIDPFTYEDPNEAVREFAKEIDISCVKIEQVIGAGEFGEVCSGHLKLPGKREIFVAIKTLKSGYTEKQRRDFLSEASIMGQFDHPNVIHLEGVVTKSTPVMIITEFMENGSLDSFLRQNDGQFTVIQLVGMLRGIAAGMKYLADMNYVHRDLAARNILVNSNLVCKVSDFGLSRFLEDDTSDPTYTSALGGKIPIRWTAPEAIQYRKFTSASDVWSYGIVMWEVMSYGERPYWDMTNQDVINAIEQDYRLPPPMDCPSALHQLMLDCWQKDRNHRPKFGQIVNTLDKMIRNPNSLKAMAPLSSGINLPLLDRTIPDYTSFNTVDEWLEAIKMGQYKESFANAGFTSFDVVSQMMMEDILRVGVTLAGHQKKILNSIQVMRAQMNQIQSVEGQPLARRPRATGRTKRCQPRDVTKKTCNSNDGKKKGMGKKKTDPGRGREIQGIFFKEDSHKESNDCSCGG

Sequence | phosphorylation enrichment
TRNRDYDDIDD [TTYH2_Y424] | 0.563
AVAFVYYKSIG [ADGRL4_Y301] | 0.585
VRFTEYETQVK [TARDBP_Y155] | 1.01
VCDSNYSASRW [LRP5_Y1552_D1551N] | 1.85
FSVDSYDSSVR [KCNQ1_Y461_G460S] | 0.87
GYRPVYSEDEQ [CHST6_Y362] | 0.762
RGFRVCFTPDS [PTPRF_Y450_Y450C_YF] | 0.462
YLENYYDLKKD [MMP3_Y42] | 3.03
RGRSTYFWPRP [GAGE12J_Y9_YF] | 0.652
YHIDHYLGKEM [G6PD_Y202_R198H] | 0.505
YSKDNYKRVTG [PANK2_Y405] | 0.44
FFRRHYPLTTL [TNS4_Y644] | 0.497
LFQAKYQIRYR [CRLF1_Y272] | 0.517
FGLDHYQCDCT [PTGS1_Y54_R53H] | 0.5
IFGVSYDEYRY [CFTR_Y512] | 0.504
HLVSEYQQYQD [TUBB3_Y422_D417H] | 1.11
TTTQAYRVNER [PRKN_Y391_D394N] | 0.31

Sequence | phosphorylation enrichment
AEEEIYGIFGA [SRCtide_2014] | 1.36
GSTLSYFGLAA [P2RX7_Y343] | 0.621
RRIHSNRGHLW [VHL_Y112_Y112N] | 0.48
VSGIPYGQPKQ [NEU1_Y251] | 0.323
SELVCYDARVH [MET_Y971_R970C] | 0.673
EKLQQYIAPGM [EPHB3_Y600] | 0.35
QRPYVYYYSYL [PTEN_Y176_R173P] | 4.08
PIPIKYKAMKK [MYD88_Y257_L252P] | 0.495
FTGVEYSSCDT [EPHA3_Y937] | 0.637
KNNDGYIDFAE [MCFD2_Y135_YF] | 0.483
LGQRIYQYIRS [DYRK1B_Y271_Q275R] | 3.2
GDDLSYGDVPP [IRS1_Y151_E147D] | 0.588
ADKAAYLQSLN [MYH2_Y389] | 0.561
FETVKYINNER [ABCB7_Y345_F346I_YF] | 0.403
FSKRIYKGMVA [PCDH15_Y931] | 0.5
FIRRDYEACKA [BBS4_Y48_K46R_YF] | 0.59

Target: FGFR3 (UniProt P22607)
Test: as above

FGFR3, sequence (P22607 whole entry, looked up): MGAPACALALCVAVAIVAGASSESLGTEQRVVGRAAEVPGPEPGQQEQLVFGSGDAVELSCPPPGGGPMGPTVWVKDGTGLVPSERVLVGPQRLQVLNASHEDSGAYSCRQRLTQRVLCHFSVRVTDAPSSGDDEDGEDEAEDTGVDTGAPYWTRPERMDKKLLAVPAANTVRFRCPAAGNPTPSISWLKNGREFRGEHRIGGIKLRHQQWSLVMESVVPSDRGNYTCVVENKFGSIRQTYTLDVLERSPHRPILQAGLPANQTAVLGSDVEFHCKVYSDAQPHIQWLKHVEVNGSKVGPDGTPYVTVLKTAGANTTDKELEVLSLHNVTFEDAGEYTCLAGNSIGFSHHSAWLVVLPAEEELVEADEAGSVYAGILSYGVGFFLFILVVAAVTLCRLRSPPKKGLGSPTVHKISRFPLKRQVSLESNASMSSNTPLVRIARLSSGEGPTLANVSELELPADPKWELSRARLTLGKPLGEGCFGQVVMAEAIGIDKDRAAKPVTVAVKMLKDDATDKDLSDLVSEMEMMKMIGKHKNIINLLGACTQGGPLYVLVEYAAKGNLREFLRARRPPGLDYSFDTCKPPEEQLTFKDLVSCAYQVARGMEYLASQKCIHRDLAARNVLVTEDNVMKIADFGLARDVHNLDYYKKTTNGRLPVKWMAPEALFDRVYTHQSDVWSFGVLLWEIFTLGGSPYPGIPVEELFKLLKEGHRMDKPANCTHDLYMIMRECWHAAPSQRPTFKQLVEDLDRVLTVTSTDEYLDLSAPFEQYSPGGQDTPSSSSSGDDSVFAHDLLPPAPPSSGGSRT

Sequence | phosphorylation enrichment
TRNRDYDDIDD [TTYH2_Y424] | 0.665
AVAFVYYKSIG [ADGRL4_Y301] | 0.641
VRFTEYETQVK [TARDBP_Y155] | 0.542
VCDSNYSASRW [LRP5_Y1552_D1551N] | 0.626
FSVDSYDSSVR [KCNQ1_Y461_G460S] | 0.548
GYRPVYSEDEQ [CHST6_Y362] | 0.806
RGFRVCFTPDS [PTPRF_Y450_Y450C_YF] | 0.812
YLENYYDLKKD [MMP3_Y42] | 7.09
RGRSTYFWPRP [GAGE12J_Y9_YF] | 1.06
YHIDHYLGKEM [G6PD_Y202_R198H] | 0.667
YSKDNYKRVTG [PANK2_Y405] | 0.4
FFRRHYPLTTL [TNS4_Y644] | 0.467
LFQAKYQIRYR [CRLF1_Y272] | 0.789
FGLDHYQCDCT [PTGS1_Y54_R53H] | 0.68
IFGVSYDEYRY [CFTR_Y512] | 0.664
HLVSEYQQYQD [TUBB3_Y422_D417H] | 1.05
TTTQAYRVNER [PRKN_Y391_D394N] | 0.386

Sequence | phosphorylation enrichment
AEEEIYGIFGA [SRCtide_2014] | 0.89
GSTLSYFGLAA [P2RX7_Y343] | 1.6
RRIHSNRGHLW [VHL_Y112_Y112N] | 0.408
VSGIPYGQPKQ [NEU1_Y251] | 0.437
SELVCYDARVH [MET_Y971_R970C] | 0.679
EKLQQYIAPGM [EPHB3_Y600] | 0.506
QRPYVYYYSYL [PTEN_Y176_R173P] | 7.23
PIPIKYKAMKK [MYD88_Y257_L252P] | 0.858
FTGVEYSSCDT [EPHA3_Y937] | 0.721
KNNDGYIDFAE [MCFD2_Y135_YF] | 0.725
LGQRIYQYIRS [DYRK1B_Y271_Q275R] | 0.959
GDDLSYGDVPP [IRS1_Y151_E147D] | 0.576
ADKAAYLQSLN [MYH2_Y389] | 0.572
FETVKYINNER [ABCB7_Y345_F346I_YF] | 0.64
FSKRIYKGMVA [PCDH15_Y931] | 0.367
FIRRDYEACKA [BBS4_Y48_K46R_YF] | 0.494

Tested on: c-Src
Test: as above

Sequence | phosphorylation enrichment
TRNRDYDDIDD [TTYH2_Y424] | 0.448
AVAFVYYKSIG [ADGRL4_Y301] | 0.489
VRFTEYETQVK [TARDBP_Y155] | 0.406
VCDSNYSASRW [LRP5_Y1552_D1551N] | 0.396
FSVDSYDSSVR [KCNQ1_Y461_G460S] | 0.474
GYRPVYSEDEQ [CHST6_Y362] | 0.636
RGFRVCFTPDS [PTPRF_Y450_Y450C_YF] | 0.549
YLENYYDLKKD [MMP3_Y42] | 2.31
RGRSTYFWPRP [GAGE12J_Y9_YF] | 0.999
YHIDHYLGKEM [G6PD_Y202_R198H] | 0.546
YSKDNYKRVTG [PANK2_Y405] | 0.44
FFRRHYPLTTL [TNS4_Y644] | 0.516
LFQAKYQIRYR [CRLF1_Y272] | 0.531
FGLDHYQCDCT [PTGS1_Y54_R53H] | 0.464
IFGVSYDEYRY [CFTR_Y512] | 1.27
HLVSEYQQYQD [TUBB3_Y422_D417H] | 0.939
TTTQAYRVNER [PRKN_Y391_D394N] | 0.473

Sequence | phosphorylation enrichment
AEEEIYGIFGA [SRCtide_2014] | 4.49
GSTLSYFGLAA [P2RX7_Y343] | 0.629
RRIHSNRGHLW [VHL_Y112_Y112N] | 0.625
VSGIPYGQPKQ [NEU1_Y251] | 0.434
SELVCYDARVH [MET_Y971_R970C] | 0.482
EKLQQYIAPGM [EPHB3_Y600] | 0.412
QRPYVYYYSYL [PTEN_Y176_R173P] | 5.34
PIPIKYKAMKK [MYD88_Y257_L252P] | 0.534
FTGVEYSSCDT [EPHA3_Y937] | 0.555
KNNDGYIDFAE [MCFD2_Y135_YF] | 0.395
LGQRIYQYIRS [DYRK1B_Y271_Q275R] | 3.09
GDDLSYGDVPP [IRS1_Y151_E147D] | 0.63
ADKAAYLQSLN [MYH2_Y389] | 0.45
FETVKYINNER [ABCB7_Y345_F346I_YF] | 0.431
FSKRIYKGMVA [PCDH15_Y931] | 0.338
FIRRDYEACKA [BBS4_Y48_K46R_YF] | 0.616
